Patent publication US12510548B2, “Method of determining toxicity of an immunomodulatory drug for use in humans” (The Jackson Laboratory, priority 2017, dated 2025)
Read-outs that look alike come from different tables or passages of the source.

Assays:
NK cells = settings: cited from earlier work
hPBMC humanized NSG mice [1] = settings: mouse, in vivo
Source text: The clinical score in the mice was monitored by performing the signs and the grading of scores as follow: Score: 0=normal activity; 1=normal activity, piloerection, tiptoe gait; 2=hunched, reduced activity but still mobile; 3=hypomotile but mobile when prompted; 4=moribund (point of death). Mice with a clinical score of 4 were euthanized.
As in a reference by Brady et al., Clinical & Translational Immunology, 2014, the inventors performed the signs and the grading of scores as follow: Score: 0=normal activity; 1=normal activity, piloerection, tiptoe gait; 2=hunched, reduced activity but still mobile; 3=hypomotile but mobile when prompted; 4=moribund (point of death). Mice with a clinical score of 4 were euthanized.

hPBMC humanized NSG mice [2] = settings: mouse, in vivo; remark: listed apart in the source
Method: Rectal temperature of the mice of Examples 5 and 6 was measured before treatment and again immediately before each time-point bleed. […] Rectal temperature was measured in hPMBCs humanized mice of 10 donors injected with control PBS, OKT3, and anti-CD28. The number of mice for each group was 2-5 and data are presented as mean±SEM.
Rectal temperature of the mice was measured before treatment and again immediately before each time-point bleed. Temperature was measured by the insertion of a rectal thermocouple probe and waiting until a stable reading was obtained.

hPBMC humanized NSG mice [3] = assay: Human cytokine release in sera of hPBMC humanized NSG mice after drug injection (BD CBA Th1/Th2 II kit); settings: mouse, in vivo
Method: PBMCs of nine […] different donors were used to produce humanized NSG mice for these experiments. On day 6 of hPBMC engraftment (2×10^7 PBMCs/mouse), the mice were induced for human cytokine release by i.v. injection with antibodies OKT3 (anti-CD3 mAb; BioLegend, Cat. No. 317302) or ANC28.1/5D10 (also referred to as “ANC28”, “anti-CD28 mAb,” or “anti-CD28”; Ancell, Cat. No. 177-824). PBS buffer served as a negative control. The mice were bled at 2 and 6 hours, sera were collected and analyzed for cytokine concentrations using BD Cytometric Bead Array (CBA) Human Th1/Th2 Cytokine kit II (BD, Cat. No. 551809) (See, FIGS. 5A-5F).
FIGS. 5A-5F depict multiple graphs of concentration of different cytokines (i.e., IFN-γ, IL-6, IL-2, IL-10, IL-4, and TNF, respectively) measured at 2 and 6 hours after injection of antibodies OKT3 (anti-CD3 mAb) and ANC28 (anti-CD28) into sets of humanized mice for nine (9) different donors. Mice were i.v. injected with 0.5 mg/kg OKT3 or 1 mg/kg anti-CD28, and 5 ml/kg PBS (a negative control). Mice were bled at 2 and 6 hours and circulating cytokine concentrations were measured by BD CBA Th1/Th2 II kit.
To do so, a high number of PBMCs (i.e., 5×10^7/mouse) was engrafted into the humanized NSG mice. On day 6, the mice received the drug and a cytokine release profile was determined. Here, the IFN-γ and Il-10 levels were evaluated as in the above-mentioned experiments using 2×10^7 PBMCs/mouse.
On day 6 after engraftment, the mice received the immunotherapeutic drug (mAb) and a cytokine release profile was determined in these three groups of mice. Mice were bled at 2 and 6 hours and circulating cytokine concentrations were measured by BD CBA Th1/Th2 II kit. FIGS. 10A-F depict the cytokine levels after drug injection in donor 309 humanized NSG mice engrafted with 2×10^7, 3×10^7, or 4×10^7PBMCs/mouse. FIG. 10A depicts the INFγ level for each group of mice. FIG. 10B depicts the IL-10 level for each group of mice. FIG. 10C depicts the IL-6 level for each group of mice. FIG. 10D depicts the IL-2 level for each group of mice. FIG. 10E depicts the IL-4 level for each group of mice. FIG. 10F depicts the TNF level for each group of mice.
In this study, the inventors examined different concentrations of […]® (pembrolizumab) to determine if there is dosage dependence in the CRS in humanized mice. 6-week old female NOD.Cg-Prkdc^scid Il2rg^tm1Wjl/SzJ (NSG, JAX stock number 005557) mice were irradiated with 100cGy X-ray at least 4 hours prior to human PBMCs engraftment. The PBMCs in these experiments were from donor 358. Purified/isolated human PBMCs were intravenously injected into the mice at 3×10^7 cells/mouse. Six days after PBMC engraftment, mice were iv injected with PBS (negative control), 0.5 mg/kg OKT3 (positive control), 2.5 mg/kg, 5 mg/kg, or 10 mg/kg […]®. There were 5 mice per group. These […]® dosages are in the range of dosages studied in clinical trials discussed on the U.S. prescribing information for […]®. Few adverse effect reports of severe cytokine release syndrome after […]® administration have been documented. Mice were bled at 2 and 6 hours and circulating cytokine concentrations were measured using a BD CBA Th1/Th2 II kit. As shown in FIGS. 12A-F, the level measured after injection of the positive control OKT3 was very high for each of IFN-γ, IL-10, IL-6, IL-2, IL-4, and TNF. […]

human PBMCs = assay: In vitro PBMC assay of cytokine release (drug-coated plate); type: cell-based; settings: donor 213; anti-CD28 10 μg/well, OKT3 1 mg/ml; supernatant day 2
Method: Day −1: Coated the plate with drugs: dilute drug (e.g., an antibody) in PBS; leave plate open under hood.
Day 0: Process PBMCs from each donor. PBMCs were from donor 213, 309, 345, or 366. Thaw PBMCs in supplemented RPMI and wash once. Count cells and re-suspend in supplemented RPMI at 1×10^6 cells/ml. Wash coated wells twice with 200 μl PBS and then once with 200 μL supplemented RPMI. Plate 100 μl of cells in each well (for a total of 1×10^5 cells per well).
Day 2: Harvest supernatant from each well and measure the cytokine level using a BD CBA Th1/Th2 II kit.
The two methods for determining cytokine release levels after a drug treatment were compared for treatment of PBMCs from four different donors with an anti-CD28 antibody (Ancell, Cat. No. 177-824). For the in vitro assay, anti-CD28 was dosed at 10 μg/well in the 96 well plates. For the in vivo method, anti-CD28 was dosed at 1 mg/kg. Supernatants of the in vitro PBMC culture wells and serum from the mice were collected and cytokine levels were measured. Antibody OKT3 (0.5 mg/kg for the in vivo assay or 1 mg/ml for the in vitro assay) was used as a positive control and either PBS or isotype antibodies were used as negative controls in the in vivo assay or the in vitro assay, respectively. The cytokine levels determined are presented in FIGS. 14A (IFN-γ and IL-10) and 14B (IL-6 and IL-4) as mean values±standard error of the mean (SEM).

non-humanized mice = assay: Administration of antibodies to non-humanized mice, cytokine responses; settings: mouse, in vivo

Substance | cytokine release in vivo (NK cells) | clinical score (hPBMC humanized NSG mice [1]) | body temperature (rectal) (hPBMC humanized NSG mice [2]) | cytokine levels in non-irradiated mice compared to irradiated mice (hPBMC humanized NSG mice [3]) | major inflammatory cytokines in treated humanized mice (hPBMC humanized NSG mice [3]) | level of each of IFN-γ, IL-10, IL-6, IL-2, IL-4, and TNF (hPBMC humanized NSG mice [3]; iv, 0.5 mg/kg) | IFN-γ, IL-10, IL-6, and IL-4 levels versus control isotype antibody, in vitro (human PBMCs) | cytokine responses in non-humanized mice (non-humanized mice) | clinical score (hPBMC humanized NSG mice [1]; 5 mg/kg) | clinical score (hPBMC humanized NSG mice [1]; 10 mg/kg) | cytokine levels (hPBMC humanized NSG mice [3]; iv, 2.5 mg/kg)
alemtuzumab [CAMPATH 1-H] | high levels of TNF, IFN-γ and IL-6 |  |  |  |  |  |  |  |  |  | 
muromonab-CD3 [OKT3] |  | 1 | below 36 °C | consistently lower | significant increase in major inflammatory cytokines | very high | much higher than levels determined after dosing with the control isotype antibody | did not induce the cytokine responses |  |  | 
pembrolizumab |  |  |  | consistently lower |  |  |  |  | the same as positive control | the same as positive control | within the error range of the level measured for the PBS control group
